Results taken from publication PMC10208982, “Structural basis of catalytic activation in human splicing” (Nature, 2023).

Target: T1, PRP2(137–1022) (human, UniProt O60231 137-1022)
T1 construct: comprises the modelled NTD (pin, clip, hook) and the helicase core; The tag can be cleaved off with HRV-3C protease; also called recombinant PRP2; source: Sf9 or Hi5 insect cells, purified (Strep-Tactin, then SEC or Q Sepharose); also co-expressed with PPIL4 in Sf9, in lysate; not shown: Twin-StrepII, N-terminal, kept
T1 sequence (looked up): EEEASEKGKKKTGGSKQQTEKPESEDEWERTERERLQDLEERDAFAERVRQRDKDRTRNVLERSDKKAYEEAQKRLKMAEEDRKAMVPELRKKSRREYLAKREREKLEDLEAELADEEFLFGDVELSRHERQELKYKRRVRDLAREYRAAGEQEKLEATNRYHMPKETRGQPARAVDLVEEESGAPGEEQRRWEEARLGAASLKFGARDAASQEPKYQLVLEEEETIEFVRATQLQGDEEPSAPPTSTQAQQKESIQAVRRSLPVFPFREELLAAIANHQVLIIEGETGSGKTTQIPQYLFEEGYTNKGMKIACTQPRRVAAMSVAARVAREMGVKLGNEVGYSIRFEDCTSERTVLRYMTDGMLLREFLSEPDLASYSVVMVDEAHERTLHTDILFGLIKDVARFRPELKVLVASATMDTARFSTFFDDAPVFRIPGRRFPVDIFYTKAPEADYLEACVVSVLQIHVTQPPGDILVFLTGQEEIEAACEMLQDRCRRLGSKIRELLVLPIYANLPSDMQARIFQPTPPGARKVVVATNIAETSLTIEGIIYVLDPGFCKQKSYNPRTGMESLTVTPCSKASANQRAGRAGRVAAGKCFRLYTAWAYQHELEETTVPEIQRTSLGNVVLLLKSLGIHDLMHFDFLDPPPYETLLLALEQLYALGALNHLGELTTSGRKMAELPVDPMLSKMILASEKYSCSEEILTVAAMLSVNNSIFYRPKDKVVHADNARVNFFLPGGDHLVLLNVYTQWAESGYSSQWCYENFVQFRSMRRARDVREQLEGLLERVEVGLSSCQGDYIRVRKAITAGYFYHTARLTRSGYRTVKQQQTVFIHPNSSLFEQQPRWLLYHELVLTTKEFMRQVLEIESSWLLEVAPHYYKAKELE
Experiment: SEC; around 30 μg PRP2(137–1022) mixed with a 5-fold excess of cofactor in 100 μl, 1 h on ice; Superdex 200 Increase 10/300 GL; 20 mM HEPES-KOH pH 7.5, 100 mM KCl, 1.5 mM MgCl2, 5% glycerol; fractions analysed by SDS-PAGE
Details: both partners purified

B1: GPKOW (natural protein, human, UniProt Q92917 1-476, looked up)
chain: MADSKEGVLPLTAASTAPISFGFTRTSARRRLADSGDGAGPSPEEKDFLKTVEGRELQSVKPQEAPKELVIPLIQNGHRRQPPARPPGPSTDTGALADGVVSQAVKELIAESKKSLEERENAGVDPTLAIPMIQKGCTPSGEGADSEPRAETVPEEANYEAVPVEAYGLAMLRGMGWKPGEGIGRTFNQVVKPRVNSLRPKGLGLGANLTEAQALTPTGPSRMPRPDEEQEKDKEDQPQGLVPGGAVVVLSGPHRGLYGKVEGLDPDNVRAMVRLAVGSRVVTVSEYYLRPVSQQEFDKNTLDLRQQNGTASSRKTLWNQELYIQQDNSERKRKHLPDRQDGPAAKSEKAAPRSQHWLHRDLRVRFVDNMYKGGQYYNTKMIIEDVLSPDTCVCRTDEGRVLEGLREDMLETLVPKAEGDRVMVVLGPQTGRVGHLLSRDRARSRALVQLPRENQVVELHYDAICQYMGPSDTDDD
notes: human GPKOW, codon-optimized synthetic gene (GeneArt); also called PRP2 cofactor GPKOW; source: Sf9 or Hi5 insect cells, purified (Strep-Tactin, SEC); not shown: Twin-StrepII, N-terminal, kept
  binding result: binds
